Measured values reported in the supplement of paper PMC12667976.

B1: library; numbered along this chain (parent)
chain: MATDAALRRLLRLHRTEIAVAVDSAFPLLHALADHDVVPEDKFQETLHLKEKEGCPQAFHALLSWLLTQDSTAILDFWRVLFKDYNLERYGRLQPILDSFPKDVDLSQPRKGRKPPAVPKALVPPPRLPTKRKASEEARAAAPAALTPRGTASPGSQLKAKPPKKPESSAEQQRLPLGNGIQTMSASVQRAVAMSSGDVPGARGAVEGILIQQVFESGGSKKCIQVGGEFYTPSKFEDSGSGKNKARSSSGPKPLVRAKGAQGAAPGGGEARLGQQGSVPAPLALPSDPQLHQKNEDECAVCRDGGELICCDGCPRAFHLACLSPPLREIPSGTWRCSSCLQATVQEVQPRAEEPRPQEPPVETPLPPGLRSAGEEVRGPPGEPLAGMDTTLVYKHLPAPPSAAPLPGLDSSALHPLLCVGPEGQQNLAPGARCGVCGDGTDVLRCTHCAAAFHWRCHFPAGTSRPGTGLRCRSCSGDVTPAPVEGVLAPSPARLAPGPAKDDTASHEPALHRDDLESLLSEHTFDGILQWAIQSMARPAAPFPS

Variants of: B1
Test: AIRE transcriptional activation functional score (insulin promoter-GFP; nonsense median 0, synonymous median 1) (normalised score); higher = higher AIRE activity (more reporter activation)
Details: with insulin promoter-GFP reporter in HEK293
Method in brief: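 Codon-optimized AIRE NNN-codon libraries (three regions) were integrated by Bxb1 recombinase into Flp-In T-REx HEK293 landing-pad cells carrying an insulin core promoter-GFP reporter. Integrants (mCherry+, BFP−) sorted at day 7 were expanded 7 days; top 10% GFP and unselected integrant populations were tile-sequenced. Functional score is select versus non-select variant enrichment, wild-type subtracted. Variants needed 10 counts per million in non-select; scores were rescaled to nonsense median 0 and synonymous median 1, then averaged over biological replicates.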

AIRE transcriptional activation functional score: each site, then its substitutions
L392: M 0.734; N 0.909; A 0.196; P 0.582; T 0.53; Q 1.18; V 1.36; I 1.7; G 0.912; W 1.22; F 1.15; K 1.14; S 1.43; R 1.06; H 0.636; E 0.303
K395: H 0.628; A 0.786; W 0.234; T 0.901; E 0.701; N 0.081; V 1.34; C 0.49; L 1.38; D 0.353; I 0.422; S 0.558; M 2.5; Y 1.47; F 0.828; R -0.166; Q 1.35
Y394: L 1.07; S 0.848; N 0.966; Q -0.333; V 0.926; P 1.43; K 0.301; T 0.126; D 0.711; E 0.49; R 0.595; H 0.428; C 0.576; W 0.755; M 1.13; F 0.973; G 0.882; A 0.692; I 0.972
H396: K 1.61; N 1.09; G 0.899; I 1.17; Y 1.44; F 1.15; V 1.25; E -0.185; D 0.156; Q 1.12; P 1.02; W 1.28; T 0.549; A 0.663; C 1.33; L 1.69; R 1.03; S 0.606
M388: C 0.979; G 0.832; F 1.15; D 0.8; K 1.05; W 1.46; Y -0.0355; R 0.983; I 0.924; N 0.557; E 0.756; V 1.49; Q 0.232; A 0.871; T 0.897; H 1.2; S 0.824; P 1.14; L 1.17
T390: V 1.25; A 0.741; C 0.472; K 1.1; F 1.29; I 0.876; E -0.73; W 1.51; Y 1.62; Q 0.868; P 0.842; L 1.23; D 0.833; R 1.02; G 1.17; S 0.817; N 1.09
L397: C 0.827; E 0.622; D 0.808; A 0.914
T391: C 0.542; A 1.09; M 1.02; D 0.889; R 1.15; K 0.54; P 0.882; H 1.17; S 0.957; V 1.16; E 0.539; F 1.41; Q 0.725; G 0.941; L 1.06; I 1.29; Y 1.45; W 1.58
D389: Y 0.964; I -0.197; T 1.23; N 1.22; P 0.951; R 0.387; H 1.2; A 1.04; W 0.0908; M -0.143; K 0.278; L 0.218; F 0.472; Q -0.15; G 0.913; C 0.869; V 0.292; S 1.24; E 0.728
G387: V 1.5; S 0.84; Y 1.72; T 1.22; W 1.52
V393: Q -0.242; C 1.11; S 0.746; Y 0.561; M 0.98; W 1.67; N 1.09; D 0.48; T 1.14; P 0.254; G 1.28; A 1.04; E 0.991; L 1.2; R 0.0991
